The series can be described thus: soluble on expression in E. coli; label from the status in PepcDB or PDB records.
As to “MGSDKIHHHHHHMRLGVNEAVELSLGELQNTPSISYFNSIVLSLNKVQKGSLFVAKDHTLIPKALELGAYGILYTGEYPVSDRDVAWIKLKDIEHSLNHLFKFCLLNERVVGALLSPIELEIASKIMVSNFVWCLKESLEDLFIIEGCKIAFFDKLEWLHLFYKQEHLKEDLKESCLIILNQSFFCSALVYEKQEYEFKMPCIFLGSLKRVIQLCEKLQIEFDLNLLGKKEYPLDHCKPFFVNKNLEIAPYGTTARVIVAETSKELFEMMLQKAFEILSWGKIVVFCRKNSAAFFKKTNPYFYTTQNNLKEQLKNLAFNFAFIHGISSHHLESLLNPPFFKKTPTLW”, the “soluble on expression in E. coli” value is given as “not soluble”.

For the sequence “MAHHHHHHMALQENRDSYKVKALSLSEFVQQCSDCHQLCLEKTVRVLDNRSRAPRGWEALFNSVAEERRSEDLDLCESRCRYMQTTCPSQDKVQQYEQALAAASLKLKKSTPPNPSVLQDASRCEHAVEVFSNVLFALAHKPSKVSFPTKDLKTGGNTDAESHAGAPTEAHRKVLEGAKNMDNDVSCRSSKLRHERFGSKAQDVASSTGSSLAPDTAAASPASSGTTPKW”, the “soluble on expression in E. coli” value is reported as “not soluble”.

Turning to “AEDAKLRINGATVTSATNKVTNYIPGVTINLKKETTGAEKLTIQDQSDEKAASMITSFVNTYNALTSTMKTYTGKGTILQASAADLEANRALNNVFQHKKDGNTLFDFGISVDKEGVLKVDETAMKKMVAEDPTAVERFFFGIGGIGDELYQSLNKTFGSTGFISDETTSMTNEINKLNLKLTDITSRNDTLLTNITDQYNKWLEMMQAMQSDAMTLDALIDGMNSSNK”, the “soluble on expression in E. coli” value is given as “not soluble”.

Regarding “MEEHPRAWIISVGNELLIGRTINTNAAWLGSRLTLLGFEVERVVTVPDRVEDIAEEVGRALGRARVVITTGGLGPTYDDVTLQGVAMALGRGLKLHPGALEMVRRFYSKRGLGLTEDRVKMAMLPDGAEPLENPVGAAPGAVVEARGSLVASLPGVPSEMEAMFEKALRPLLEEIAPPGAVVECGIAVVGVPESSLAPYIKEASRVSPRVYVKSHPQGSEIGKPLVRVRVLARASTLEEARAEALKALEKVRRGVEELGGSISEEDSC”, the “soluble on expression in E. coli” value is on record as “soluble”.

With “SSMIMYRKDLMEKAGLTMPDAPTWDFVKEAAQKMTDKDAEVYGICLRGKAGWGENMAFLTAMANSYGARWFDENWQPQFDGEAWKATLTDYLDMMTNYGPPGASNNGFNENLALFQQGKCGMWIDATVAASFVTNPEESTVADKVGFALAPDTGKGKRANWLWAWNLAIPAGSQKVDAAKQFIAWATSKDYAELVASKEGWANVPPGTRISLYENP”, the “soluble on expression in E. coli” value is “not soluble”.

For “MSWTGRLQCTAAFRNGRTVILDSYNEGALKLMRPVYLNSTYPTLYLVHVGGGYVDGDSYDMEISLEPSARLMVTTQSAAKIYKTPSTPVRQYTRFSLGEQSVLEYFPDPTIAYEHARFVQETTVYITSSSTVVYGEIITPGWSESGELFRYDWIRSKLKVYQDEALVLFDHLYLDSRQHLTSMLQLGGYTHVGSLVALSPFITKEVLERFNQFMEEMPQEVRCGFSAAAVPGFSVRILAYETSAIEAIFQRVQQFIRQQCGEKTPVCWRKY”, the “soluble on expression in E. coli” value is “not soluble”.

Consider “MGIGKEIRLERIMNRETRKTIIVPMDHGVSSGPIEGIVNIREAVEKVAEGGANAVVLHKGMVRAGHRGRGRDIGLIVHLSASTDLSPRKNDKVLVCTVEEAIRLGADAVSIHVNIGAEGEREMLKDFGYVSKVCEEWQMPLLAMVYGRGPKIENQYDPKVVAHCARVGAELGADIVKVPYTGDPETFKLAIEGSPIPVVIAGGPKMKSEREVLEMVQGAMQAGAAGLSIGRNIFQAKDPAKMVRAMSLIVHEGKSVEEAFEILK”, for which the “soluble on expression in E. coli” value is given as “not soluble”.

As for “MGSDKIHHHHHHMPSTFESQLFFSRPFLSKRQIQRAQKNTISDYRNYNQKKLAVFKFLSDLCVQLKFPRKTLETAVYFYQRYHLFNRFETEVCYTVATSCLTLGCKEVETIKKTNDICTLSLRLRNVVKINTDILENFKKRVFQIELRILESCSFDYRVNNYVHIDEYVIKIGRELSFDYKLCNLAWVIAYDALKLETILVIPQHSIALAILKIAYELLDNKNWSSKRYSLFETDEKSVNEAYFDIVNFYINSFDMCDLQRHLPADLLPIGVERFMELKKNAGPESGLPQIPDHLLNADPYITITRDNNVQERRYVLSLELINGESSINSSTRHA”, the “soluble on expression in E. coli” value is recorded as “not soluble”.

As for “MSLTSTLLRGRTLSFVRWPETIDDHSAWRYEEDGGLLISDGRIIASGAYHDVEKQAGEGAKKIDHRPHLLLPGFIDTHVHFPQMQVIASYGAELLDWLNTYTFPEETKFANAQHGRRIARLFLDEMVRHGTTTVAAYCSVHKASAEAFFAESHDRNMLNIAGKVMMDRNAPDGVLDTPQSGYDDTKALIKEWHGKGRQHYAITPRFAITSSPEQMEMAGALCREHPGLHMQTHLSENHAEIAFTQQLYPRSRDYTDVYEHYGLLGKNSLFGHCIHLSEREADALSQSGSVAVFCPTSNLFLGSGLFDYQRFRRRDKPLRIAAATDVGGGTNYSMLRTMDEGYKVIALNGEKLNPFQSFWQITRGNAEALSVADKIGTLDQGTDADIVVLDARATPAMRLRMETAQTLAQELFLLQTLGDDRAVREVYVAGRAAKSDMANEGHHHHHH”, the “soluble on expression in E. coli” value is recorded as “soluble”.

“MSPENKICMEQSEDGDLDAGDELFEEVDGDGKGEIFANRELLNIDHVPDENRIVGRDEHITELANEIGPAVTGSPPNSVILYGKTGSGKSLVANHVMERARREAQRRDRRLATVTVDCAQSRGEADTVQTIADKINRSTSGVTVPTRGISTNEYYNRLWQILGTEYDAALITLDEVDRLSDDDILMILSRAREAGKVDVPIGIISISNKVNFREQMTERVKSSLGHNEMIFDPYDGEQLRQILENRKDAFQEDILMPGVIPKTAALAAQRHGDARKAIRLLRHAGDYAKTNNIGTVKESHLELAQEQAEVERLKELISGLPPHSKYVLYALANLTDGTTNSNDWFRTTVIYDVYEEVCKTEATDTLTTDTIRGLLNELAFLEITESNQEHGGMGKGTYKEHRLLWDPNVVFKMNPGSAQVDTDR”: the “soluble on expression in E. coli” value is “not soluble”.

For “ALLITKKCINCDMCEPECPNEAISMGDHIYEINSDKCTECVGHYETPTCQKVCPIPNTIVKDPAHVETEEQLWDKFVLMHHADKI”, the “soluble on expression in E. coli” value was “soluble”.

Regarding “RKWAEDNEVQNCMACGKGFSVTVRRHHCRQCGNIFCAECSAKNALTPSSKKPVRVCDACFNDLQG”, the “soluble on expression in E. coli” value is listed as “soluble”.

As to “MMNMITVIGFGSFGRKVVNFIKNKEPITIIDKNIDDADDLVKEGVTVIVGDATQDEVLKKAKIENADIVLILTNEPEVNRRIAERVCELSPNSYKIARAIPRYPELYMGLNIDKIINILESGAKDIAKEVEDAKLKRKLMQLKSVLIEGKKRCMKLEKTEEEKKAPLLILTHINPDPDAIASAMALKTLAERWGVDSDIAYGGNIGYDENKAMINLLGIKLLNVEDIDLDNYCVIAVIDTSTSKQLPIELPNIDIIIDHHNNTDLTAKYMDVRPEVGATASILTQYLMELDIEPSRNLATALFYGIQSDTDYFKRETSKLDFEAAAYLQSYIDASILNMIENPEISTEVMEVLAKAVMNRRVVKGNIALAYVGEISNRDALPKAADFLLKMEGISTTFVFGIVGDEIHISARTKDLRLNLGEILNKAFGGGGHQTAAAAKIPLGIFKAVSDKEALRKLVEEAIRAKILEVIGIKEEEK”, the “soluble on expression in E. coli” value was “not soluble”.

For “MRSQPTVSVIVPARNEAGNIAAAVERLPELGAETELIFVEGHSRDQTWETIEQTVAEYQGPLKLLACRQTGKGKADAVRLGFDKASGDILMILDADLTVQPEDLGHFYRAIASGRGEFINGSRLVYPRSRLAMPGLNTLANRTFALIFSFLLGQPLKDTLCGTKVLWKTDYDRVAAGRKYFGDFDPFGDFDLLFGAAKLGLEIVEVPVRYQERSYGSSNIAHVREGLILARMCLYAAGKLKFPLEHHHHHH”, the “soluble on expression in E. coli” value is “not soluble”.

In the case of “DGSPAATPEIRVNHEPEPAGGATPGATLPKSPSQLRKGPPVPPPPKHTPSKEVKQEQILSLFEDTFVPEISVTTPSQPAEASEVAGGTQPAAGAQEPGETAASEAASSSLPAVVVETFPATVNGTVEGGSGAGRLDLPPGFMFKVQAQHDYTATDTDELQLKAGDVVLVIPFQNPEEQDEGWLMGVKESDWNQHKKLEKCRGVFPENFTERVP”, the “soluble on expression in E. coli” value was “soluble”.

Turning to “SNAMSEFIMNNLEQTARRWLEERGVTVEKIAELVYYLQSKYHPDLTMEECIENVNRVISKREVQNAILTGIQLDKLAEDGRLDEPLQSIIRRDEGLYGVDEILALSIVNVYGSIGFTNYGYIDKQKPGILQYLNDKSTGKCNTFLDDIVGAIAAAASSRLAHRAANAE”, the “soluble on expression in E. coli” value is “soluble”.

Turning to “MAVLKGLRPRVPKGLKSPPEPWGWPLLGHVLTLGKNPHLALSRMSQRYGDVLQIRIGSTPVLVLSRLDTIRQALVRQGDDFKGRPDLYTSTLITDGQSLTFSTDSGPVWAARRRLAQNALNTFSIASDPASSSSCYLEEHVSKEAKALISRLQELMAGPGHFDPYNQVVVSVANVIGAMCFGQHFPESSDEMLSLVKNTHEFVETASSGNPLDFFPILRYLPNPALQRFKAFNQRFLWFLQKTVQEHYQDFDKNSVRDITGALFKHSKKGPRASGNLIPQEKIVNLVNDIFGAGFDTVTTAISWSLMYLVTKPEIQRKIQKELDTVIGRERRPRLSDRPQLPYLEAFILETFRHSSFLPFTIPHSTTRDTTLNGFYIPKKCCVFVNQWQVNHDPELWEDPSEFRPERFLTADGTAINKPLSEKMMLFGMGKRRCIGEVLAKWEIFLFLAILLQQLEFSVPPGVKVDLTPIYGLTMKHARCEHVQARRFSINHHHH”, the “soluble on expression in E. coli” value is “soluble”.

In the case of “EQEVSLDLILVEEYDSLIEKMSNWNFPIFELVEKMGEKSGRILSQVMYTLFQDTGLLEIFKIPTQQFMNYFRALENGYRDIPYHNRIHATDVLHAVWYLTTRPVPGLQQIHNGCGTGNETDSDGRINHGRIAYISSKSCSNPDESYGCLSSNIPALELMALYVAAAMHDYDHPGRTNAFLVATNAPQAVLYNDRSVLENHHAASAWNLYLSRPEYNFLLHLDHVEFKRFRFLVIEAILATDLKKHFDFLAEFNAKANDVNSNGIEWSNENDRLLVCQVCIKLADINGPAKVRDLHLKWTEGIVNEFYEQGDEEANLGLPISPFMDRSSPQLAKLQESFITHIVGPLCNSYDAAGLLPGQWLEAEEDNDTESGDDEDGEELDTEDEEMENNLNPKPPRRKSRRRIFCQLMHHLTENHKIWK”, the “soluble on expression in E. coli” value is listed as “soluble”.

For “MLQDAVEDLGCELWGIECQRVGRFMTVRLFIDKDGGVTVDDCADVSRQVSAILDVEDPIADKYNLEVSSPGLDRPLFTLPQFERYIGQDIAVHLRIPVMERRKWQGKLERIEKDMITLIVDDQEQILVFGNIQKANVVAKF”, the “soluble on expression in E. coli” value is recorded as “not soluble”.

For “MGSDKIHHHHHHMKFFNREKEIEEILHIIESEPQRINFIFGSINSGKTALINEIINNRLNKDKYVVFYFDLREIFISKYDDFIEVLFEEYEEPFIDKVKRLFLSLIKDYPDVIKSYALLNITGVVDSIPIPKNTLNELLKKRNVKNVFRYITSVLIKIKREGKQPIIIIDELQKIGDLKLNGFLIYELFNYFVSLTKHKHLCHVFCLSSDSLFIERVYNEAMLEGRCKYILVDDFDRETALKFMDFLAKENNINLTNEDKELIYNYVGGKPIDIIYVINEMKYKKLEDILTSMLKEETQKLKYFLENVKEEDEELYKKVVDALKIFKDSYEIEDIKIPKKLREFLVKKNILFLNPIEGTLKPQSFLVWNAIKRIL”, the “soluble on expression in E. coli” value is “not soluble”.

With “MGSDKIHHHHHHVTEPIRLYYWPAPNFGDALSHLVVEHVSGRPVVNARPKQAELFALGSLMHVISRHWTERVRGEGPLLWGTGLLNPFYRKEFLENVRVRLLRGPISAAFLRLKMTEFGDPGLLADEAVGPVEDRHDRVAIVPHHSQMDDPRFVEMVEADPALHLIDVRLDPVTVCREIAASAHVFSASLHGLIVADAYGVANTWMDPEAQGRLKYHDYAAAIGRDMIAPVEIRDVPKAARTARDRPFPYADGIARCRESLHRHFPAELRAPLRATAS”, the “soluble on expression in E. coli” value is given as “not soluble”.
